Data: US12144869B2, “Anti-ROR1 antibody conjugates, compositions comprising anti ROR1 antibody conjugates, and methods of making and using anti-ROR1 antibody conjugates” (Sutro Biopharma, Inc., priority 2022, dated 2024)
Positions count from the first letter of the chain named.

B1: SRP2196-B05 (antibody, V domains shown)
VH: EVQLVESGGGLVQPGGSLRLSCAASGFNITGYYIHWVRQAPGKGLEWVGQISPNSGATYHADSVKGRFTISADTSKNTAYLQMNSLRAEDTAVYYCARDSRRYVRGWDYWGQGTLVTVSS
VL: QAVVTQESALTTSPGETVTLTCRSSTGAVTTSNYANWVQEKPDHLFTGLIGGTNKRAPGVPARFSGSLIGDKAALTITGAQTEDEAIYFCALWYSNLWVFGGGTKLTVL
B2: SRP2196-A11 (antibody, V domains shown)
VH: B1 VH with A57T, H60D
VL: B1 VL
B3: SRP2196-A02 (antibody, V domains shown)
VH: B1 VH with Y59H, H60D
VL: B1 VL
B4: SRP2196-C01 (antibody, V domains shown)
VH: B1 VH with T30I, Q50S, S52T, N54L, Y59S, H60K, V104I, G106S
VL: B1 VL
B5: SRP2196-B10 (antibody, V domains shown)
VH: B1 VH with Q50S, S52T, N54L, Y59S, H60K, V104I, G106S
VL: B1 VL
B6: SRP2196-B04 (antibody, V domains shown)
VH: B1 VH with G31E, Q50Y, H60Q
VL: B1 VL
B7: SRP2196-A05 (antibody, V domains shown)
VH: B1 VH with G31N, Q50Y, H60Q, G106S
VL: B1 VL
B8: SRP2196-B06 (antibody, V domains shown)
VH: B1 VH with A57S, H60S, R105L, G106S
VL: B1 VL
B9: SRP2196-A08 (antibody, V domains shown)
VH: B1 VH with Q50Y, A57S, H60K, K76R, G106S
VL: B1 VL
B10: SRP2196-A01 (antibody, V domains shown)
VH: B1 VH with A57Y, H60Y
VL: B1 VL
B11: SRP2196-A10 (antibody, V domains shown)
VH: B1 VH with Q50Y, Y59H, H60Y, T74I, Y94H, G106S
VL: B1 VL
B12: SRP2196-B08 (antibody, V domains shown)
VH: B1 VH with A57Y, H60L
VL: B1 VL
B13: SRP2196-B02 (antibody, V domains shown)
VH: B1 VH with G31Q, Q50Y, A57Q, H60D, G106S
VL: B1 VL
B14: SRP2196-A06 (antibody, V domains shown)
VH: B1 VH with A57S, Y59H, H60Q, E89G
VL: B1 VL
B15: 1944-A07 HC w/hUCHT1 LC3: HC of lead antibody 1944-A07 co-expressed with the LC of anti-CD3 antibody "hUCHT1-LC3" (antibody, V domains shown)
VH: B1 VH with Q50Y, A57S, H60Y, G106P, W107F
VL: DIQMTQSPSTLSASVGDRVTITCRASQDIRNYLNWYQQKPGKAPKLLIYYTSRLHSGVPSRFSGSGSGTEYTLTISSLQPDDFATYYCQQGNTLPWTFGGGTKVEIK
B16: 1944-A07 HC w/hSP34 LC3: HC of lead antibody 1944-A07 co-expressed with the LC of anti-CD3 antibody "hSP34-LC3" (antibody, V domains shown)
VH: B1 VH with Q50Y, A57S, H60Y, G106P, W107F
VL: QTVVTQEPSLTVSPGGTVTLTCGSSTGAVTSGYYPNWFQQKPGQAPRGLIGGTKFLAPGTPARFSGSLLGGKAALTLSGVQPEDEAEYYCALWYSNRWVFGGGTQLTVTG
B17: 1944-A07 HC w/hOKT3 LC1: HC of lead antibody 1944-A07 co-expressed with the LC of anti-CD3 antibody "hOKT3-LC1" (antibody, V domains shown)
VH: B1 VH with Q50Y, A57S, H60Y, G106P, W107F
VL: DIQMTQSPSSLSASVGDRVTITCSASSSVSYMNWYQQKPGKAPKRLIYDTSKLASGVPSRFSGSGSGTEYTLTISSLQPEDFATYYCQQWSSNPFTFGQGTKLEIK
B18: SRP1944-A07 w SP34 LC3: "initial antibody leads constructed with an SP34 light chain" (antibody, V domains shown)
VH: B1 VH with Q50Y, A57S, H60Y, G106P, W107F
VL: B16 VL
B19: SRP2196-A04 (antibody, V domains shown)
VH: EVQLVESGGGLVQPGGSLRLSCAASGFNISPYYIHWVRQAPGKGLEWVGQIYPISGHTYQADSVKGRFTISADTSKNTAYLQMNSLRAEDTAVYYCARESRRYVGPFGYWGQGTLVTVSS
VL: B1 VL

system: not listed separately; assay: Differential scanning fluorimetry (protein thermal shift; TM1/TM2); format: physicochemical; conditions: Table 11; melting temperature of the Fab domain
Experimental: A protein thermal shift assay was carried out by mixing the protein to be assayed with an environmentally sensitive dye (SYPRO Orange, Life Technologies Cat #S-6650) in a phosphate buffered solution (PBS), and monitoring the fluorescence of the mixture in real time as it underwent controlled thermal denaturation. Protein solutions between 0.2-2 mg/mL were mixed at a 1-1 volumetric ratio with a 1-500 PBS-diluted solution of SYPRO Orange (SYPRO Orange stock dye is 5000× in DMSO). 10 μL aliquots of the protein-dye mixture were dispensed in quadruplicate in a 384-well microplate (Bio-Rad Cat #MSP-3852), and the plate was sealed with an optically clear sealing film (Bio-Rad Cat #MSB-1001) and placed in a 384-well plate real-time thermocycler (Bio-Rad CFX384 Real Time System). The protein-dye mixture was heated from […], at increments of 0.1° C. per cycle (˜1.5° C. per minute), allowing 3 seconds of equilibration at each temperature before taking a fluorescence measurement. At the end of the experiment, the transition melting temperatures (TM1 and TM2) were determined using the Bio-Rad CFX manager software. TM1 represents the melting temperature of the Fc domain. TM2 represents the melting temperature of the Fab domain.
For the thermal stability of an antibody, the first melting peak (Tm1) coincides with the unfolding of the CH2 domain (FC stability), while the second melting peak (Tm2) occurs upon unfolding of the Fab domain.

Molecule | TM2 (° C.) [°C]
B1 | 73
B2 | 73
B3 | 71
B4 | 70
B5 | 70
B6 | 72
B7 | 71
B8 | 70
B9 | 69
B10 | 74
B11 | 68
B12 | 75
B13 | 69
B14 | 70

molecular target: T1, human ROR1-Fz (Homo sapiens, UniProt Q01973); assay: Biacore off-rate and kinetic analysis, ROR1-Fz; format: binding; conditions: Table 7; sample ROR1 Fz; 1944-A07 HC with different LCs
T1 construct: Frizzled (Fz, residues 165-305); His6 (C); purchased Acro Biosystems; host or cells: HEK293
Experimental: Anti-Fc polyclonal antibodies were immobilized onto a CMS chip (GE Life Sciences) using amine coupling chemistry (from Amine Coupling Kit, GE Life Sciences). The immobilization steps were carried out at a flow rate of 25 μL/min in 1×HBS-EP+buffer (GE Life Sciences; 10× Stock diluted before use). The sensor surfaces were activated for 7 min with a mixture of NHS (0.05 M) and EDC (0.2 M). The Anti-Fc antibodies were injected over all 4 flow cells at a concentration of 25 ug/ml in 10 mM sodium acetate, pH 4.5, for 7 min. Ethanolamine (1 M, pH 8.5) was injected for 7 min to block any remaining activated groups. An average of 12,000 response units (RU) of capture antibody was immobilized on each flow cell.
Off-rate and kinetic binding experiments were performed at 25° C. using 1×HBS-EP+buffer. Test and control antibodies were injected over the anti-Fc surface at concentrations of 5-10 μg/mL for 12 seconds at a flow rate of 10 μL/min on flow cells 2, 3 and 4, followed by a buffer wash for 30 seconds at the same flow rate. Kinetic characterization of antibody samples was carried out with a range of antigen concentrations from 1-100 nM and 1 injection of 0 nM antigen (for example, 100, 50, 25, 6.25, 1.56 and 0 nM). After capturing ligand (antibody) on the anti-Fc surface, the analyte (hROR1, Fz or Kr domains, Acro Biosystems, Delaware) was bound for 180 seconds, followed by a 600 second dissociation phase at a flow rate of 50 μL/min. Between each ligand capture and analyte binding cycle, regeneration was carried out using 2 injections of 10 mM Glycine pH 2.0 for 30 seconds at 30 μL/min, followed by a 30 second buffer wash step.
The data was fit with the Biacore T200 Evaluation software, using a 1-1 Langmuir binding model. KD (affinity, nM) was determined as a ratio of the kinetic rate constants calculated from the fits of the association and dissociation phases.
For anti-CD3-LC-containing IgGs that had detectable ROR1-binding in ELISA (1944-A07 and 1987-C05 variants), those antibodies were further tested for binding by surface plasmon resonance (SPR). Binding kinetics were assessed to the ROR1-frizzled domain (hROR1-Fz) or the ROR1-extracellular domain (hROR1) for 1944-A07 and 1987-C05 variants, respectively. Briefly, anti-ROR1 antibodies were captured via anti-human Fc polyclonal antibodies immobilized to a CM5 chip, and ROR1 recombinant proteins were flowed across the surface to assess binding kinetics. hROR1 or hROR1-Fz domain (Acro Biosystems, Delaware) binding was tested at 100, 50, 25, 6.25, 1.5625 nM. The data was fit with the Biacore™ T200 Evaluation software, using a 1-1 Langmuir binding model. KD (affinity, nM) was determined as a ratio of the kinetic rate constants calculated from the fits of the association and dissociation phases.

T1 sequence (Q01973 165-305): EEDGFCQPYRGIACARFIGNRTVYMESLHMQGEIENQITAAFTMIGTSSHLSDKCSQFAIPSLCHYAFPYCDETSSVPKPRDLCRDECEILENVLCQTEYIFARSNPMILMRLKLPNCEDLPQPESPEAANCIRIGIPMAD

Molecule | ka1 [M⁻¹ s⁻¹] | kd1 [s⁻¹] | KD
B15 | 1.85e+06 | 0.119 | –
B16 | 360000 | 0.00228 | –
B17 | – | – | Not detected

same assay, conditions: Table 11; SP34 light chain

Molecule | Biacore human ROR1-Fz ka [M⁻¹ s⁻¹] | Biacore human ROR1-Fz kd [s⁻¹]
B2 | 191000 | 0.000792
B4 | 125000 | 0.000457
B5 | 128000 | 0.000334
B6 | 127000 | 0.000352
B7 | 175000 | 0.000682
B8 | 142000 | 0.000423
B9 | 183000 | 0.00078
B11 | 172000 | 0.000479
B12 | 156000 | 0.000488
B18 | 597000 | 0.0085
B13 | 163000 | 0.000227
B14 | 180000 | 0.00069
B19 | 139000 | 0.000343

same assay, conditions: hROR1-Fz; 1944-A07 variants

Molecule | KD (SPR binding kinetics)
B15 | binding was not detected
